Target: T1, extracellular domain of human BMP receptor type IA (BMPR-IAEC), wild type (human, UniProt P36894)
T1 construct: numbers count on: the mature protein; In the crystal only Pro34-Val118 were traced; also called BMPR-IA WT; BMPR-IA ectodomain; source: expressed as thioredoxin-fusion protein as described [16], purified
Assay: SPR; Biacore 2000, room temperature; biotinylated BMP-2 and Fabs immobilised on a streptavidin-coated CM5 chip; wildtype or mutant BMPR-IAEC as analyte at 1000, 500, 250, 125, 62.5 nM; HBS500 (10 mM HEPES, 500 mM NaCl pH 7.4, 3.4 mM EDTA, 0.005% surfactant P20), 10 µl/min; 1:1 Langmuir model; apparent KD from equilibrium binding and/or kon and koff
Details: both partners purified

T1 sequence (P36894 24-152): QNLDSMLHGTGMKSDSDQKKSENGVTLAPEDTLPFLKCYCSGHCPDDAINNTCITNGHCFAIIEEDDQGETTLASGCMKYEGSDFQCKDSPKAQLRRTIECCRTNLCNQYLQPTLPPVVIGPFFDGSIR

B1: Fab AbD1556 (Fab, V domains shown)
VH: QVQLVESGGGLVQPGGSLRLSCAASGFTFSNYTLNWVRQAPGKGLEWVSYTSSSGSLTGYADSVKGRFTISRDNSKNTLYLQMNSLRAEDTAVYYCARERWHVRGYFDHWGQGTLVTVSS
VL: DIELTQPPSVSVAPGQTARISCSGDSLGSKYVIWYQQKPGQAPVLVIYDDSNRPSGIPERFSGSNSGNTATLTISGTQAEDEADYYCSTFTMSGNGTVFGGGTKLTVL
notes: heavy chain of Fab AbD1556 (Gln1 to Phe224, then the Strep-Tag); light chain of Fab AbD1556 (Asp1 to Ala213); Human Fab of the HuCal library; Not biotinylated in the crystal; some residues of PDB 3NH7 are not modelled; source: obtained from AbD-Serotech (Martinsried), recombinant Fab selected from the HuCal phage library
Kd: 20 nM | koff: 0.0017 s⁻¹ | kon: 88000 M⁻¹ s⁻¹
